The values below come from the supplement of paper PMC5998384.

The test system of data set [1] is HeLa Kyoto. Description: solubility in G1/S (NP-40 vs SDS abundance) (log2 ratio); higher = more soluble. Conditions: cell cycle stage: G1/S.
The test system of data set [2] is HeLa Kyoto. Kind of data set: melting temperature (median over replicates), in situ; higher = more thermally stable.
Data set [3] deals with HeLa Kyoto. Kind of data set: solubility change mitosis vs G1/S (difference of NP-40 vs SDS log2 ratios) (log2 ratio difference); higher = more soluble in mitosis.
In data set [4] the test system is HeLa Kyoto. Kind of data set: thermal stability score vs G1/S (z-score of summed log2 fold changes over temperatures); higher = more thermally stable than in G1/S.
Setting [5] is: cell cycle stage: early G1 (4.5 h after nocodazole release).
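Throughout, for melting temperature (median over replicates), in situ: HeLa Kyoto cells synchronized by double thymidine or nocodazole block, proteins quantified by TMT10plex mass spectrometry, three independent biological replicates.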
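Throughout, for solubility change mitosis vs G1/S (difference of NP-40 vs SDS log2 ratios): synchronized HeLa Kyoto cells (double thymidine block for G1/S, nocodazole release for mitosis), protein amounts in NP-40 versus SDS lysates quantified by mass spectrometry, three biological replicates.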
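Throughout, for solubility in G1/S (NP-40 vs SDS abundance): HeLa Kyoto cells arrested at G1/S by double thymidine block, proteins quantified by TMT10plex mass spectrometry in mild NP-40 versus SDS extracts, three biological replicates.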
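Throughout, for thermal stability score vs G1/S (z-score of summed log2 fold changes over temperatures): synchronized HeLa Kyoto cells, proteins quantified by TMT10plex mass spectrometry, three biological replicates, mitosis taken 0.5 h after nocodazole release, G1/S directly after double thymidine block.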

On to “MWNMLIVAMCLALLGCLQAQELQGHVSIILLGATGDLAKKYLWQGLFQLYLDEAGRGHSFSFHGAALTAPKQGQELMAKALESLSCPKDMAPSHCAEHKDQFLQLSQYRQLKTAEDYQALNKDIEAQLQHAGLREAGRIFYFSVPPFAYEDIARNINSSCRPGPGAWLRVVLEKPFGHDHFSAQQLATELGTFFQEEEMYRVDHYLGKQAVAQILPFRDQNRKALDGLWNRHHVERVEIIMKETVDAEGRTSFYEEYGVIRDVLQNHLTEVLTLVAMELPHNVSSAEAVLRHKLQVFQALRGLQRGSAVVGQYQSYSEQVRRELQKPDSFHSLTPTFAAVLVHIDNLRWEGVPFILMSGKALDERVGYARILFKNQACCVQSEKHWAAAQSQCLPRQLVFHIGHGDLGSPAVLVSRNLFRPSLPSSWKEMEGPPGLRLFGSPLSDYYAYSPVRERDAHSVLLSHIFHGRKNFFITTENLLASWNFWTPLLESLAHKAPRLYPGGAENGRLLDFEFSSGRLFFSQQQPEQLVPGPGPAPMPSDFQVLRAKYRESPLVSAWSEELISKLANDIEATAVRAVRRFGQFHLALSGGSSPVALFQQLATAHYGFPWAHTHLWLVDERCVPLSDPESNFQGLQAHLLQHVRIPYYNIHPMPVHLQQRLCAEEDQGAQIYAREISALVANSSFDLVLLGMGADGHTASLFPQSPTGLDGEQLVVLTTSPSQPHRRMSLSLPLINRAKKVAVLVMGRMKREITTLVSRVGHEPKKWPISGVLPHSGQLVWYMDYDAFLG [H6PD]”, for which, in data set [1], the “solubility in G1/S (log2)” value was determined as 0.122. The melting temperature worked out at 53.3 °C in data set [2] (cell cycle stage: G1/S) and 53.7 °C in data set [2] (cell cycle stage: mitosis). The “solubility change mitosis (log2)” value in data set [3] stood at 0.0207. Besides, the values for the thermal stability score in data set [4] (setting [5]) and in data set [4] (cell cycle stage: mitosis) were 1.01 and 2.18, respectively.
Regarding “MWRGLWTLAAQAARGPRRLCTRRSSGAPAPGSGATIFALSSGQGRCGIAVIRTSGPASGHALRILTAPRDLPLARHASLRLLSDPRSGEPLDRALVLWFPGPQSFTGEDCVEFHVHGGPAVVSGVLQALGSVPGLRPAEAGEFTRRAFANGKLNLTEVEGLADLIHAETEAQRRQALRQLDGELGHLCRGWAETLTKALAHVEAYIDFGEDDNLEEGVLEQADIEVRALQVALGAHLRDARRGQRLRSGVHVVVTGPPNAGKSSLVNLLSRKPVSIVSPEPGTTRDVLETPVDLAGFPVLLSDTAGLREGVGPVEQEGVRRARERLEQADLILAMLDASDLASPSSCNFLATVVASVGAQSPSDSSQRLLLVLNKSDLLSPEGPGPGPDLPPHLLLSCLTGEGLDGLLEALRKELAAVCGDPSTDPPLLTRARHQHHLQGCLDALGHYKQSKDLALAAEALRVARGHLTRLTGGGGTEEILDIIFQDFCVGK [GTPBP3]”, the “solubility in G1/S (log2)” value in data set [1] was 0.505. Moreover, the results for the melting temperature in data set [2] (cell cycle stage: G1/S) and in data set [2] (cell cycle stage: mitosis) were 53.2 °C and 52.4 °C, respectively. In data set [3], the “solubility change mitosis (log2)” value amounted to 0.0593. Besides, the thermal stability score in data set [4] (setting [5]) was -0.238; in data set [4] (cell cycle stage: mitosis), -0.0908.
Consider “MWRLPGARAALRVIRTAVEKLSRAEAGSQTAAGAMERAVVRCVPSEPKLSLSFALADGSHKNMQRDQSEPLGRVLSRIATNALKGHAKAAAAKKSRKSRPNASGGAACSGPGPEPAVFCEPVVKLYYREEAVAEDVLNVDAWQDGAVLQIGDVKYKVERNPPAFTELQLPRYIMAGFPVCPKLSLEFGDPASSLFRWYKEAKPGAAEPEVGVPSSLSPSSPSSSWTETDVEERVYTPSNADIGLRLKLHCTPGDGQRFGHSRELESVCVVEAGPGTCTFDHRHLYTKKVTEDALIRTVSYNILADTYAQTEFSRTVLYPYCAPYALELDYRQNLIQKELTGYNADVICLQEVDRAVFSDSLVPALEAFGLEGVFRIKQHEGLATFYRKSKFSLLSQHDISFYEALESDPLHKELLEKLVLYPSAQEKVLQRSSVLQVSVLQSTKDSSKRICVANTHLYWHPKGGYIRLIQMAVALAHIRHVSCDLYPGIPVIFCGDFNSTPSTGMYHFVINGSIPEDHEDWASNGEEERCNMSLTHFFKLKSACGEPAYTNYVGGFHGCLDYIFIDLNALEVEQVIPLPSHEEVTTHQALPSVSHPSDHIALVCDLKWK [PDE12]”, for which, in data set [1], the “solubility in G1/S (log2)” value was 0.0541. Besides, the melting temperature in data set [2] (cell cycle stage: G1/S) came to 52.1 °C; in data set [2] (cell cycle stage: mitosis) it was 52.3 °C. For the same sequence, the “solubility change mitosis (log2)” value in data set [3] was -0.171. For the same sequence, the figures for the thermal stability score in data set [4] (setting [5]) and in data set [4] (cell cycle stage: mitosis) were -1.65 and -1.58, respectively.
For the sequence “MWRVCARRAQNVAPWAGLEARWTALQEVPGTPRVTSRSGPAPARRNSVTTGYGGVRALCGWTPSSGATPRNRLLLQLLGSPGRRYYSLPPHQKVPLPSLSPTMQAGTIARWEKKEGDKINEGDLIAEVETDKATVGFESLEECYMAKILVAEGTRDVPIGAIICITVGKPEDIEAFKNYTLDSSAAPTPQAAPAPTPAATASPPTPSAQAPGSSYPPHMQVLLPALSPTMTMGTVQRWEKKVGEKLSEGDLLAEIETDKATIGFEVQEEGYLAKILVPEGTRDVPLGTPLCIIVEKEADISAFADYRPTEVTDLKPQVPPPTPPPVAAVPPTPQPLAPTPSAPCPATPAGPKGRVFVSPLAKKLAVEKGIDLTQVKGTGPDGRITKKDIDSFVPSKVAPAPAAVVPPTGPGMAPVPTGVFTDIPISNIRRVIAQRLMQSKQTIPHYYLSIDVNMGEVLLVRKELNKILEGRSKISVNDFIIKASALACLKVPEANSSWMDTVIRQNHVVDVSVAVSTPAGLITPIVFNAHIKGVETIANDVVSLATKAREGKLQPHEFQGGTFTISNLGMFGIKNFSAIINPPQACILAIGASEDKLVPADNEKGFDVASMMSVTLSCDHRVVDGAVGAQWLAEFRKYLEKPITMLL [DLAT]”, in data set [1], the “solubility in G1/S (log2)” value came to 0.263. Also, the figures for the melting temperature in data set [2] (cell cycle stage: G1/S) and in data set [2] (cell cycle stage: mitosis) were 54 °C and 52.3 °C, respectively. Moreover, the “solubility change mitosis (log2)” value in data set [3] is -0.12. Further, the thermal stability score in data set [4] (setting [5]) was -1.61; in data set [4] (cell cycle stage: mitosis), -3.92.
